Test results published in article doi:10.1101/2024.02.22.581614 (bioRxiv, 2024).

Target: T1, Extant nitrogenase molybdenum-iron protein alpha chain, NifD (A. vinelandii) (Azotobacter vinelandii, UniProt P07328 1-492)
T1 sequence (looked up): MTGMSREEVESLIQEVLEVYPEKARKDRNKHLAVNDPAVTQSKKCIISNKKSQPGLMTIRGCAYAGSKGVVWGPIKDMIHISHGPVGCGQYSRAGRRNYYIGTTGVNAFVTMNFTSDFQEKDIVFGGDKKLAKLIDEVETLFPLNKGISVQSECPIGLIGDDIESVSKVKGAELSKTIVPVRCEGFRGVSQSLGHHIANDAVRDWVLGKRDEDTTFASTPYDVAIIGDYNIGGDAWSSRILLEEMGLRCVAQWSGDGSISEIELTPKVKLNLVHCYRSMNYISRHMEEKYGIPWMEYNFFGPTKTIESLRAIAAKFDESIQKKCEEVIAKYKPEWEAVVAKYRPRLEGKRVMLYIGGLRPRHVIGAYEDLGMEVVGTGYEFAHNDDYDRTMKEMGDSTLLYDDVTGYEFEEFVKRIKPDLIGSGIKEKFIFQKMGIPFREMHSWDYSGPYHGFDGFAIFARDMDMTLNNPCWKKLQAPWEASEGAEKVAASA
Experiment: affinity co-purification

stoichiometry N: 0.93 D:K
B1: Extant nitrogenase molybdenum-iron protein beta chain, NifK (A. vinelandii) (enzyme, Azotobacter vinelandii, UniProt P07329 1-523, looked up)
chain: MSQQVDKIKASYPLFLDQDYKDMLAKKRDGFEEKYPQDKIDEVFQWTTTKEYQELNFQREALTVNPAKACQPLGAVLCALGFEKTMPYVHGSQGCVAYFRSYFNRHFREPVSCVSDSMTEDAAVFGGQQNMKDGLQNCKATYKPDMIAVSTTCMAEVIGDDLNAFINNSKKEGFIPDEFPVPFAHTPSFVGSHVTGWDNMFEGIARYFTLKSMDDKVVGSNKKINIVPGFETYLGNFRVIKRMLSEMGVGYSLLSDPEEVLDTPADGQFRMYAGGTTQEEMKDAPNALNTVLLQPWHLEKTKKFVEGTWKHEVPKLNIPMGLDWTDEFLMKVSEISGQPIPASLTKERGRLVDMMTDSHTWLHGKRFALWGDPDFVMGLVKFLLELGCEPVHILCHNGNKRWKKAVDAILAASPYGKNATVYIGKDLWHLRSLVFTDKPDFMIGNSYGKFIQRDTLHKGKEFEVPLIRIGFPIFDRHHLHRSTTLGYEGAMQILTTLVNSILERLDEETRGMQATDYNHDLVR
